pKd: −log10 of the molar value.
Target: Asialo-BSM (desialylated bovine submaxillary mucin) (bovine)
Experiment: fluorescence binding assay on an Asialo-BSM-coated 96-well plate (0.5 µg/well), biotinylated VVA detected with Alexa Fluor 488 streptavidin, fit with GraphPad Prism

## Vicia villosa agglutinin (VVA), biotinylated (from UniProt P56625 1-185)
  pKd: 7.27

From US20240092935A1
